Residue numbers refer to the chain shown, from its start. Names and notes keep the numbering of the source.

First the molecules themselves.
B1: Ec-Mdh: (L)-malate dehydrogenase from Escherichia coli, SEQ ID NO: 2 (protein, listed as Escherichia coli)
chain: MKVAVLGAAGGIGQALALLLKTQLPSGSELSLYDIAPVTPGVAVDLSHIPTAVKIKGFSGEDATPALEGADVVLISAGVARKPGMDRSDLFNVNAGIVKNLVQQVAKTCPKACIGIITNPVNTTVAIAAEVLKKAGVYDKNKLFGVTTLDIIRSNTFVAELKGKQPGEVEVPVIGGHSGVTILPLLSQVPGVSFTEQEVADLTKRIQNAGTEVVEAKAGGGSATLSMGQAAARFGLSLVRALQGEQGVVECAYVEGDGQYARFFSQPLLLGKNGVEERKSIGTLSAFEQNALEGMLDTLKKDIALGEEFVNK
B2: R81A: E. coli malate dehydrogenase mutant R81A, SEQ ID No. 102 (protein, listed as Escherichia coli)
chain: MDHRAMKVAVLGAAGGIGQALALLLKTQLPSGSELSLYDIAPVTPGVAVDLSHIPTAVKIKGFSGEDATPALEGADVVLISAGVAAKPGMDRSDLFNVNAGIVKNLVQQVAKTCPKACIGIITNPVNTTVAIAAEVLKKAGVYDKNKLFGVTTLDIIRSNTFVAELKGKQPGEVEVPVIGGHSGVTILPLLSQVPGVSFTEQEVADLTKRIQNAGTEVVEAKAGGGSATLSMGQAAARFGLSLVRALQGEQGVVECAYVEGDGQYARFFSQPLLLGKNGVEERKSIGTLSAFEQNALEGMLDTLKKDIALGEEFVNK
B3: R81A G179D D86S: E. coli malate dehydrogenase mutant, SEQ ID No. 118 (protein, listed as Escherichia coli)
chain: B1 chain with R81A, D86S, G179D
B4: R81A M85Q I12V: E. coli malate dehydrogenase mutant, SEQ ID No. 108 (protein, listed as Escherichia coli)
chain: B1 chain with I12V, R81A, M85Q
B5: R81A M85Q: E. coli malate dehydrogenase mutant, SEQ ID No. 104 (protein, listed as Escherichia coli)
chain: B1 chain with R81A, M85Q
B6: R81A 112V: E. coli malate dehydrogenase mutant, SEQ ID No. 115 as printed (protein, listed as Escherichia coli)
chain: B1 chain with I12V, R81A
B7: R81A M85E I12V: E. coli malate dehydrogenase mutant, SEQ ID No. 110 (protein, listed as Escherichia coli)
chain: B1 chain with I12V, R81A, M85E
B8: R81A M85E: E. coli malate dehydrogenase mutant, SEQ ID No. 106 (protein, listed as Escherichia coli)
chain: B1 chain with R81A, M85E
B9: R81A G179D: E. coli malate dehydrogenase mutant, SEQ ID No. 112 (protein, listed as Escherichia coli)
chain: B1 chain with R81A, G179D
B10: R81A D86S: E. coli malate dehydrogenase mutant, SEQ ID No. 1114 as printed (protein, UniProt P61889 1-312, looked up, variant R81A D86S)
Malate dehydrogenase: B1 chain with R81A, D86S
B11: Ec-LdhA: (D)-lactate dehydrogenase from Escherichia coli, SEQ ID NO: 4 (protein, listed as Escherichia coli)
chain: MKLAVYSTKQYDKKYLQQVNESFGFELEFFDFLLTEKTAKTANGCEAVCIFVNDDGSRPVLEELKKHGVKYIALRCAGFNNVDLDAAKELGLKVVRVPAYDPEAVAEHAIGMMMTLNRRIHRAYQRTRDANFSLEGLTGFTMYGKTAGVIGTGKIGVAMLRILKGFGMRLLAFDPYPSAAALELGVEYVDLPTLFSESDVISLHCPLTPENYHLLNEAAFEQMKNGVMIVNTSRGALIDSQAAIEALKNQKIGSLGMDVYENERDLFFEDKSNDVIQDDVFRRLSACHNVLFTGHQAFLTAEALTSISQTTLQNLSNLEKGETCPNELV
B12: Ll-Ldh: (L)-lactate dehydrogenase of Lactococcus lactis, SEQ ID NO: 6 (protein, listed as Lactococcus lactis)
chain: MADKQRKKVILVGDGAVGSSYAFALVNQGIAQELGIVDLFKEKTQGDAEDLSHALAFTSPKKIYSADYSDASDADLVVLTSGAPQKPGETRLDLVEKNLRITKDVVTKIVASGFKGIFLVAANPVDILTYATWKFSGFPKNRVVGSGTSLDTARFRQALAEKVDVDARSIHAYIMGEHGDSEFAVWSHANVAGVKLEQWFQENDYLNEAEIVELFESVRDAAYSIIAKKGATFYGVAVALARITKAILDDEHAVLPVSVFQDGQYGVSDCYLGQPAVVGAEGVVNPIHIPLNDAEMQKMEASGAQLKAIIDEAFAKEEFASAVKN
B13: Bs-Ldh: (L)-lactate dehydrogenase of Bacillus subtilis, SEQ ID NO: 8 (protein, listed as Bacillus subtilis)
chain: MMNKHVNKVALIGAGFVGSSYAFALINQGITDELVVIDVNKEKAMGDVMDLNHGKAFAPQPVKTSYGTYEDCKDADIVCICAGANQKPGETRLELVEKNLKIFKGIVSEVMASGFDGIFLVATNPVDILTYATWKFSGLPKERVIGSGTTLDSARFRFMLSEYFGAAPQNVHAHIIGEHGDTELPVWSHANVGGVPVSELVEKNDAYKQEELDQIVDDVKNAAYHIIEKKGATYYGVAMSLARITKAILHNENSILTVSTYLDGQYGADDVYIGVPAVVNRGGIAGITELNLNEKEKEQFLHSAGVLKNILKPHFAEQKVN
B14: Gs-Ldh: (L)-lactate dehydrogenase of Geobacillus stearothermophilus, SEQ ID NO: 10 (protein, listed as Geobacillus sterarothermophillus)
chain: MKNNGGARVVVIGAGFVGASYVFALMNQGIADEIVLIDANESKAIGDAMDFNHGKVFAPKPVDIWHGDYDDCRDADLVVICAGANQKPGETRLDLVDKNIAIFRSIVESVMASGFQGLFLVATNPVDILTYATWKFSGLPHERVIGSGTILDTARFRFLLGEYFSVAPQNVHAYIIGEHGDTELPVWSQAYIGVMPIRKLVESKGEEAQKDLERIFVNVRDAAYQIIEKKGATYYGIAMGLARVTRAILHNENAILTVSAYLDGLYGERDVYIGVPAVINRNGIREVIEIELNDDEKNRFHHSAATLKSVLARAFTR

The first series in a line: OHB reductase activity, NADH absorption at 340 nm. It is filed as biochemical.
Conditions: not given
On the procedure:
(§1) Enzymatic assays: The reaction mixture contained 60 mM Hepes (pH 7), 50 mM potassium chloride, 5 mM MgCl2, 0.25 mM NADH, (optionally 5 mM fructose-1,6-bisphosphate) (all products from Sigma), and appropriate amounts of purified malate or lactate dehydrogenase or cell extract. Reactions were started by adding appropriate amounts of 2-oxo-4-hydroxybutyrate (OHB), pyruvate, or oxaloacetate (OAA). Enzymatic assays were carried out at 37° C. in 96-well flat bottomed microtiter plates in a final volume of 250 μL. The reactions were followed by the characteristic absorption of NADH at 340 nm (εNADH=6.22 mM^−1 cm^−1) in a microplate reader (BioRad 680XR).
OHB was synthesized by incubating 125 mM homoserine with snake venom (L)-amino acid oxidase (1.25 U/mL, Sigma) and catalase (4400 U/mL, Sigma) in 100 mM Tris buffer at pH 7.8 for 90 min at 37° C. Subsequently, the reaction mixture was purified on an Amicon™ Ultra centrifugal filter with a cut-off of 10 kDa to eliminate the enzymes (method adapted from Wellner & Lichtenberg, 1971).
OHB was quantified by mixing 100 μL of the tested solution with 1 mL of a solution containing 1 M sodium arsenate and 1 M boric acid at pH 6.5. The mixture was incubated at room temperature for 30 min and the absorbance at 325 nm was used to quantify OHB. The relation between absorbance and concentration of the ketone was calibrated using pyruvate solutions of known concentrations (method adapted from (Wellner & Lichtenberg, 1971)). The typical OHB yield of the method was 90%.
Consider B1, for which the “OHB reductase activity, in words” value is on record as “very minor activity”.

Still in this series, the particulars now being: E. coli Mdh mutants; measured at 20 mM OHB.
With B2, the “Max. specific activity, OHB” value was found to be 1.8 µmol/mg/min.

Consider B1, for which the “Max. specific activity, OHB” value stood at 0.01 µmol/mg/min.

With B3, the “Max. specific activity, OHB” value came to 19 µmol/mg/min.

B4: the “Max. specific activity, OHB” value was 18.9 µmol/mg/min.

B5: the “Max. specific activity, OHB” value turned out to be 4.99 µmol/mg/min.

As for B6, the “Max. specific activity, OHB” value came out at 4.9 µmol/mg/min.

B7: the “Max. specific activity, OHB” value was determined as 12.54 µmol/mg/min.

On to B8, for which the “Max. specific activity, OHB” value was determined as 3 µmol/mg/min.

Turning to B9, the “Max. specific activity, OHB” value is 4.16 µmol/mg/min.

As to B10, the “Max. specific activity, OHB” value turned out to be 14.6 µmol/mg/min.

The same series, now with this note: E. coli Mdh mutants; ns = not saturated up to 50 mM OHB.
With B3, the “Km, OHB” value is “ns”.

Still in this series, the particulars now being: when not saturated, activity estimated at 20 mM substrate.
In the case of B11, the “Max. specific activity, OHB” value is 0.56 µmol/mg/min.

B12: the “Max. specific activity, OHB” value was 18 µmol/mg/min.

As for B13, the “Max. specific activity, OHB” value is 15.7 µmol/mg/min.

As for B1, the “Max. specific activity, OHB” value is 0.01 µmol/mg/min.

In the case of B14, the “Max. specific activity, OHB” value is 66.8 µmol/mg/min.

The next series is described as follows: oxaloacetate reductase activity, NADH absorption at 340 nm. It counts as biochemical. The conditions noted are these: E. coli Mdh mutants; measured at 0.5 mM oxaloacetate. On the procedure: as §1
B2: the “Max. specific activity, OAA” value was found to be 1.16 µmol/mg/min.

In the case of B1, the “Max. specific activity, OAA” value came to 95 µmol/mg/min.

With B3, the “Max. specific activity, OAA” value is 0.54 µmol/mg/min.

Take B4: the “Max. specific activity, OAA” value is 1.84 µmol/mg/min.

For the molecule B5, the “Max. specific activity, OAA” value worked out at 0.5 µmol/mg/min.

Regarding B6, the “Max. specific activity, OAA” value came out at 0.5 µmol/mg/min.

With B7, the “Max. specific activity, OAA” value was determined as 2.2 µmol/mg/min.

On to B8, for which the “Max. specific activity, OAA” value was found to be 1 µmol/mg/min.

In the case of B9, the “Max. specific activity, OAA” value is 0.37 µmol/mg/min.

With B10, the “Max. specific activity, OAA” value was determined as 0.67 µmol/mg/min.

The same series, now with this note: E. coli Mdh mutants; ns = not saturated up to 0.5 mM oxaloacetate.
With B3, the “Km, OAA” value is reported as “ns”.

The series is the same for the next values; noted with them: natural substrate of Mdh: oxaloacetate; purified enzyme, 37° C., pH 7.
Consider B1, for which the “Max. specific activity, natural substrate” value stood at 95.6 µmol/mg/min.

Another series is described as follows: pyruvate reductase activity, NADH absorption at 340 nm. It is filed as biochemical. As to conditions: natural substrate of Ldh: pyruvate; purified enzyme, 37° C., pH 7. On the procedure: as §1
As for B11, the “Max. specific activity, natural substrate” value was found to be 265 µmol/mg/min.

B12: the “Max. specific activity, natural substrate” value amounted to 184 µmol/mg/min.

Turning to B13, the “Max. specific activity, natural substrate” value turned out to be 170 µmol/mg/min.

Turning to B14, the “Max. specific activity, natural substrate” value was 87.7 µmol/mg/min.

The record behind these values is patent US11505811B2, “Method for the preparation of 2,4-dihydroxybutyrate” (ADISSEO FRANCE S.A.S., priority 2012, dated 2022).
